Data as given in the RNAGym collection of RNA variant scans (doi:10.7554/elife.80360).

B1: CPEB3 Ribozyme (parent)
chain: GGGGGCCACAGCAGAAGCGUUCACGUCGCGGCCCCUGUCAGAUUCUGGUGAAUCUGCGAAUUCUGCUGU

Variants of: B1
Assay: self-cleavage, relative activity (ratio to wild type); higher = more cleavage; co-transcriptional

Q: With GGGGGCCACAGCAGAAGCAUUCACGUCGCGUCCCCUGUCAGAUUCUGGUGAAUCUGCGAAUUCUGCUGU [G19A G31U] as the variant, how does the self-cleavage read?
A: The self-cleavage was 0.146.

Q: With GGGGGCCACAGCAGAAGCAUUCACGUCGCGCCCCCUGUCAGAUUCUGGUGAAUCUGCGAAUUCUGCUGU [G19A G31C] as the variant, how does the self-cleavage read?
A: The self-cleavage was 0.143.

Q: With GGGGGCCACAGCAGAAGCAGUCACGUCGCGGCCCCUGUCAGAUUCUGGUGAAUCUGCGAAUUCUGCUGU [G19A U20G] as the variant, how does the self-cleavage read?
A: Its self-cleavage is 0.111.

Q: Which self-cleavage does the source give for GGGGGCCACAGCAGAAGCCUUCACGUCGCGGCCCCUGUCAGAUUCUGGUGAAUCUGCGAAUUCUGCUGU [G19C] here?
A: The self-cleavage was 0.154.

Q: Which self-cleavage does the source give for GGGGGCCACAGCAGAAGCCUUCACGUCGCGGCCCCUGUCAGAUUCUGGUGCAUCUGCGAAUUCUGCUGU [G19C A51C] here?
A: Its self-cleavage is 0.122.

Q: With GGGGGCCACAGCAGAAGCCUUCACGUCGCGGCCCCUGUCAGAUUCUGGUGAUUCUGCGAAUUCUGCUGU [G19C A52U] as the variant, how does the self-cleavage read?
A: Its self-cleavage is 0.189.

Q: Which self-cleavage does the source give for GGGGGCCACAGCAGAAGCCUUCACGUCGCGGCCCCUGUCAGAUUCUGGUGACUCUGCGAAUUCUGCUGU [G19C A52C] here?
A: The self-cleavage was 0.195.

Q: For GGGGGCCACAGCAGAAGCCUUCACGUCGCGGCCCCUGUCAGAUUCUGGUGAGUCUGCGAAUUCUGCUGU [G19C A52G], which self-cleavage is on record?
A: The self-cleavage was 0.134.

Q: For GGGGGCCACAGCAGAAGCCUUCACGUCGCGGCCCGUGUCAGAUUCUGGUGAAUCUGCGAAUUCUGCUGU [G19C C35G], which self-cleavage is on record?
A: The self-cleavage was 0.149.

Q: For GGGGGCCACAGCAGAAGCCUUCACGUCGCGGCCCAUGUCAGAUUCUGGUGAAUCUGCGAAUUCUGCUGU [G19C C35A], which self-cleavage is on record?
A: The self-cleavage was 0.154.

Q: For GGGGGCCACAGCAGAAGCCUUCACGUCGCGGCCCCUGUCAGAUUCUGGUGAAUCUGCGACUUCUGCUGU [G19C A60C], which self-cleavage is on record?
A: Its self-cleavage is 0.15.

Q: Which self-cleavage does the source give for GGGGGCCACAGCAGAAGCAUUCACGUCGCGGCCCCUGCCAGAUUCUGGUGAAUCUGCGAAUUCUGCUGU [G19A U38C] here?
A: The self-cleavage was 0.16.

Q: With GGGGGCCACAGCAGAAGCAUUCACGUCGCGGCCCCUGACAGAUUCUGGUGAAUCUGCGAAUUCUGCUGU [G19A U38A] as the variant, how does the self-cleavage read?
A: Its self-cleavage is 0.165.

Q: With GGGGGCCACAGCAGAAGCAUUCACGUCGCGGCCCCUGUCAGAUUCUGGUGAAUCUGCGAAUUCCGCUGU [G19A U64C] as the variant, how does the self-cleavage read?
A: Its self-cleavage is 0.159.

Q: Which self-cleavage does the source give for GGGGGCCACAGCAGAAGCAUUCACGUCGCGGCCCCUGUCAGAUGCUGGUGAAUCUGCGAAUUCUGCUGU [G19A U44G] here?
A: Its self-cleavage is 0.158.

Q: Which self-cleavage does the source give for GGGGGCCACAGCAGAAGCAUUCACGUCGCGGCCCCUGUCAGAUACUGGUGAAUCUGCGAAUUCUGCUGU [G19A U44A] here?
A: The self-cleavage was 0.172.

Q: With GGGGGCCACAGCAGAAGCCUUCACGUCGCGGCCCCUGUCAGAUUCUGGUGAAUCUGCGGAUUCUGCUGU [G19C A59G] as the variant, how does the self-cleavage read?
A: Its self-cleavage is 0.175.

Q: For GGGGGCCACAGCAGAAGCCUUCACGUCGCGGCCCCUGUAAGAUUCUGGUGAAUCUGCGAAUUCUGCUGU [G19C C39A], which self-cleavage is on record?
A: Its self-cleavage is 0.155.

Q: With GGGGGCCACAGCAGAAGCAUUCACGUCUCGGCCCCUGUCAGAUUCUGGUGAAUCUGCGAAUUCUGCUGU [G19A G28U] as the variant, how does the self-cleavage read?
A: Its self-cleavage is 0.132.

Q: With GGGGGCCACAGCAGAAGCAUUCACGUCACGGCCCCUGUCAGAUUCUGGUGAAUCUGCGAAUUCUGCUGU [G19A G28A] as the variant, how does the self-cleavage read?
A: The self-cleavage was 0.152.

Q: Which self-cleavage does the source give for GGGGGCCACAGCAGAAGCAUUCACGUCCCGGCCCCUGUCAGAUUCUGGUGAAUCUGCGAAUUCUGCUGU [G19A G28C] here?
A: Its self-cleavage is 0.216.

Q: For GGGGGCCACAGCAGAAGCCUUCACGUCGAGGCCCCUGUCAGAUUCUGGUGAAUCUGCGAAUUCUGCUGU [G19C C29A], which self-cleavage is on record?
A: The self-cleavage was 0.164.

Q: Which self-cleavage does the source give for GGGGGCCACAGCAGAAGCCUUCACGUCGGGGCCCCUGUCAGAUUCUGGUGAAUCUGCGAAUUCUGCUGU [G19C C29G] here?
A: Its self-cleavage is 0.1.

Q: Which self-cleavage does the source give for GGGGGCCACAGCAGAAGCAUUCACGUCGCGGCCCCUGUCAGAGUCUGGUGAAUCUGCGAAUUCUGCUGU [G19A U43G] here?
A: Its self-cleavage is 0.245.

Q: Which self-cleavage does the source give for GGGGGCCACAGCAGAAGCAUUCACGUCGCGGCCCCUGUCAGAUUCCGGUGAAUCUGCGAAUUCUGCUGU [G19A U46C] here?
A: Its self-cleavage is 0.103.

Q: For GGGGGCCACAGCAGAAGCAUUCACGUCGCGGCCCCUGUCAGAUUCGGGUGAAUCUGCGAAUUCUGCUGU [G19A U46G], which self-cleavage is on record?
A: Its self-cleavage is 0.151.

Q: With GGGGGCCACAGCAGAAGCAUUCACGUCGCGGCCCCUGUCAGAUUCUGAUGAAUCUGCGAAUUCUGCUGU [G19A G48A] as the variant, how does the self-cleavage read?
A: Its self-cleavage is 0.144.

Q: With GGGGGCCACAGCAGAAGCAUUCACGUCGCGGCCCCUGUCAGAUUCUGUUGAAUCUGCGAAUUCUGCUGU [G19A G48U] as the variant, how does the self-cleavage read?
A: The self-cleavage was 0.227.

Q: With GGGGGCCACAGCAGAAGCAUUCACGUCGCGGCCCCUGUCAGAUUCUGGUGAAUCUGCGAAAUCUGCUGU [G19A U61A] as the variant, how does the self-cleavage read?
A: Its self-cleavage is 0.16.

Q: For GGGGGCCACAGCAGAAGCAUUCACGUCGCGGCCCCUGUCAGAUUCUGGUGAAUCUGCGAACUCUGCUGU [G19A U61C], which self-cleavage is on record?
A: The self-cleavage was 0.164.

Q: With GGGGGCCACAGCAGAAGCAUUCACGUCGCAGCCCCUGUCAGAUUCUGGUGAAUCUGCGAAUUCUGCUGU [G19A G30A] as the variant, how does the self-cleavage read?
A: The self-cleavage was 0.144.

Q: Which self-cleavage does the source give for GGGGGCCACAGCAGAAGCAUUCACGUCGCCGCCCCUGUCAGAUUCUGGUGAAUCUGCGAAUUCUGCUGU [G19A G30C] here?
A: Its self-cleavage is 0.166.

Q: For GGGGGCCACAGCAGAAGCAUUCACGUCGCUGCCCCUGUCAGAUUCUGGUGAAUCUGCGAAUUCUGCUGU [G19A G30U], which self-cleavage is on record?
A: The self-cleavage was 0.147.

Q: For GGGGGCCACAGCAGAAGCAUUCACGUCGCGGCCCCUGUCAUAUUCUGGUGAAUCUGCGAAUUCUGCUGU [G19A G41U], which self-cleavage is on record?
A: Its self-cleavage is 0.142.

Q: Which self-cleavage does the source give for GGGGGCCACAGCAGAAGCAUUCACGUCGCGGCCCCUGUCACAUUCUGGUGAAUCUGCGAAUUCUGCUGU [G19A G41C] here?
A: The self-cleavage was 0.187.

Q: For GGGGGCCACAGCAGAAGCAUUCACGUCGCGGCCCCUGUCAAAUUCUGGUGAAUCUGCGAAUUCUGCUGU [G19A G41A], which self-cleavage is on record?
A: Its self-cleavage is 0.153.

Q: With GGGGGCCACAGCAGAAGCAUUCACGUCGCGGCCCCUUUCAGAUUCUGGUGAAUCUGCGAAUUCUGCUGU [G19A G37U] as the variant, how does the self-cleavage read?
A: Its self-cleavage is 0.127.

Q: For GGGGGCCACAGCAGAAGCCUUGACGUCGCGGCCCCUGUCAGAUUCUGGUGAAUCUGCGAAUUCUGCUGU [G19C C22G], which self-cleavage is on record?
A: Its self-cleavage is 0.156.

Q: With GGGGGCCACAGCAGAAGCCUUAACGUCGCGGCCCCUGUCAGAUUCUGGUGAAUCUGCGAAUUCUGCUGU [G19C C22A] as the variant, how does the self-cleavage read?
A: Its self-cleavage is 0.0962.
